Source: patent publication US20230012273A1 (Boehringer Ingelheim, published 2023)

T1: cynoSIRPα (EGM_02252), Extracellular Domain + His-Tag (cynomolgus monkey)
T1 construct: also called CySIRPα EGM_02252; not shown: His-Tag
T1 chain: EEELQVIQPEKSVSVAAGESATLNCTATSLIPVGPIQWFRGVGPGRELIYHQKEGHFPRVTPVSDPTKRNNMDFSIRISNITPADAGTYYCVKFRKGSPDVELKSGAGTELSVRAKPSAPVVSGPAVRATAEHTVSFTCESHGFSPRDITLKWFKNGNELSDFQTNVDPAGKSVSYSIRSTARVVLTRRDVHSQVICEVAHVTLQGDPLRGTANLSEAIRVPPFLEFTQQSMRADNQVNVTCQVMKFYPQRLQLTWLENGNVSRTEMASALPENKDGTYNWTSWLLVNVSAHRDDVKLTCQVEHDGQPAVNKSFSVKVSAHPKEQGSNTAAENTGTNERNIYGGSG

T2: cynoSIRPα (NP_001271679), Extracellular Domain + His-Tag (cynomolgus monkey)
T2 construct: also called CySIRPα NP_001271679; not shown: His-Tag
T2 chain: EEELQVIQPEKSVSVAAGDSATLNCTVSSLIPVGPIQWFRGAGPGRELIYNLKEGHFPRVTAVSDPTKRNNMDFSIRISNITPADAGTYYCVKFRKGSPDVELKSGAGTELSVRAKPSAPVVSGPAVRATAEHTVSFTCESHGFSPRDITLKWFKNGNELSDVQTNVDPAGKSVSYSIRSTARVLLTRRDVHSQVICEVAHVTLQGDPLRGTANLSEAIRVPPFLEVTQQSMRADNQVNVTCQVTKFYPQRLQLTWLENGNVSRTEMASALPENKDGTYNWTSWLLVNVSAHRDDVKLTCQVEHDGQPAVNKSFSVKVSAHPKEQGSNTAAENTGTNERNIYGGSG

T3: cynoSIRPα (XP_015313155), Extracellular Domain + His-Tag (cynomolgus monkey)
T3 construct: also called CySIRPα XP_015313155; not shown: His-Tag
T3 chain: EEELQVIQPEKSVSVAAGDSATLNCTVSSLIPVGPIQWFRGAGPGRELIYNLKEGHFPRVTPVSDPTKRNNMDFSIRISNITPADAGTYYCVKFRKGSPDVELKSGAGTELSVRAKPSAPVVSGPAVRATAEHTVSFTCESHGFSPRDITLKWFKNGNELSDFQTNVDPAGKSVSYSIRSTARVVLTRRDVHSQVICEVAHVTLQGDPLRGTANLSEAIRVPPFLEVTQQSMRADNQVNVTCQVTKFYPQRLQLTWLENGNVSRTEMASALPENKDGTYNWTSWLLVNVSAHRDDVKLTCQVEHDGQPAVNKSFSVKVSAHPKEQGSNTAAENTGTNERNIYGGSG


How the values were obtained:
[1] = target: T1, cynoSIRPα (EGM_02252), Extracellular …; assay: SPR, antibody captured on Protein A/G, ECD-His analyte
Procedure: (§1) The binding kinetics of anti-SIRPα antibodies to various SIRPα analytes are determined by surface plasmon resonance (SPR) using a Biacore 8K+(Cytiva). 1×HBS-EP+(Cytiva) is used as running buffer and for all the dilutions unless stated otherwise. The Series S CM5 sensorchip is activated with a 1:1 mixture of 0.1 M NHS (N-hydroxysuccinimide) and 0.4 M EDC (1-Ethyl-3-(3-dimethylaminopropyl) carbodiimide hydrochloride) for 420 seconds at a flow rate of 10 μl/min and immobilized with Protein A/G (Thermo Scientific, 10 μg/ml in 10 mM acetate pH 4.5) for 420 seconds at a flowrate of 10 μl/min resulting in approximately 3000 RU of Protein A/G on the surface. The sensorchip is then deactivated with 1 M ethanolamine HCl pH 8.5 for 420 seconds at a flowrate of 10 μl/min.
(§2) Antibodies (approximately 1 ug/ml) are captured on the Protein A/G surface for 60 seconds at a flowrate of 10 μl/min resulting in capture levels of approximately 240 RU. Dilutions of each SIRP protein (Extracellular Domain+His-Tag, with the concentrations as indicated) are injected as analytes over the captured antibody for 300 seconds of association at a flowrate of 30 μl/min, followed by a dissociation for 600 seconds.

[2] = target: T2, cynoSIRPα (NP_001271679), Extracellular …; assay: SPR, antibody captured on Protein A/G, ECD-His analyte, 1:1 fit
Procedure: as §1, §2
(§3) The above procedures are used to measure binding properties of antibodies of the present disclosure. For each analyte used, the highest concentration was as indicated in Example 3 (see Table 36).

[3] = target: T4, Human SIRPαV1 (NP_542970.1), Extracellular Domain + His-Tag (human, UniProt P78324 31-373); assay: as above
T4 construct: also called huSIRPαV1; hSIRPαV1; not shown: His-Tag
T4 sequence (P78324 other isoform, or with tags, fused parts or gaps): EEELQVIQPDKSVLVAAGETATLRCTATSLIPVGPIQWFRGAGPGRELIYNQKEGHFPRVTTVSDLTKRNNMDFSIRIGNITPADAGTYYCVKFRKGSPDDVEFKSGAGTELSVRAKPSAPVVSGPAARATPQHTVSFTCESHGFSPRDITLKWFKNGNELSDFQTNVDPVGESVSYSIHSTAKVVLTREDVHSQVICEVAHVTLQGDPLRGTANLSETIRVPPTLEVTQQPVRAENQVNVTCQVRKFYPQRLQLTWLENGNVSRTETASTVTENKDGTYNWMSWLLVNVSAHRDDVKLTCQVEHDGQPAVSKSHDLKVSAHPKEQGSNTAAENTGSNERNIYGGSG
Procedure: as §1, §2, §3

[4] = target: T5, Human SIRPαV2 (CAA71403.1), Extracellular Domain + His-Tag (human, UniProt P78324 31-373); assay: as above
T5 construct: also called huSIRPαV2; hSIRPαV2; not shown: His-Tag
T5 sequence (P78324 other isoform, or with tags, fused parts or gaps): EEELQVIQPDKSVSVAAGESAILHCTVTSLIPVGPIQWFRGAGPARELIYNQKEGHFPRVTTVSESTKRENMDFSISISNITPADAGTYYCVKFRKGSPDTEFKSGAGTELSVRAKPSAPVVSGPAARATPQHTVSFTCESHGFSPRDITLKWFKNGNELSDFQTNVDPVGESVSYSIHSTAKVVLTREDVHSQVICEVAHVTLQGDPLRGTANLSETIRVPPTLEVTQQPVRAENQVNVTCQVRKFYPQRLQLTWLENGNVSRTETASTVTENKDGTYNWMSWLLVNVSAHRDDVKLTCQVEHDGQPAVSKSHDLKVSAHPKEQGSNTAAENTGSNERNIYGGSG
Procedure: as §1, §2, §3

[5] = target: T3, cynoSIRPα (XP_015313155), Extracellular …; assay: as above
Procedure: as §1, §2, §3

| Binder | binding result [1] | Kd [2] [nM] | koff [2] [s⁻¹] | kon [2] [M⁻¹ s⁻¹] | Kd [3] [nM] | koff [3] [s⁻¹] | kon [3] [M⁻¹ s⁻¹] | Kd [4] [nM] | koff [4] [s⁻¹] | kon [4] [M⁻¹ s⁻¹] | Kd [5] [nM] | koff [5] [s⁻¹] | kon [5] [M⁻¹ s⁻¹] |
| --- | --- | --- | --- | --- | --- | --- | --- | --- | --- | --- | --- | --- | --- |
| Antibody E3 (antibody, human IgG1, kappa, L234A L235A, V domains shown) VH: QVQLQESGPGLVRPSETLSLTCTVSGGSIRNYYWSWIRQPPGKGLEWIGFIYYNGRTFYNPSLKSRVTISLDMSKNQFSLKMTSVTAADTAVYYCARVRAYSGIGLDGTDVWGQGTTVTVSS VL: DIVMTQSPLSLPVTPGEPASISCKSSQSLLYSNGYAYLDWYLQRPGQSPQLLIYQGSNRASGVPDRFSGSGSGTDFTLKISRVEAEDVGVFYCMQALQTPLTFGGGTKVEIKR | no binding (tested: 1000 nM) | 17.3 | 0.00291 | 168000 | 0.96 | 0.000371 | 385000 | 0.78 | 0.000366 | 472000 | 16.9 | 0.00288 | 170000 |
| Antibody E9 (antibody, human IgG1, kappa, L234A L235A, V domains shown) VH: QVQLQESGPGLVRPSETLSLTCTVSGGSIRNYYWSWIRQPPGKGLEWIGFIYYNGRTFYNPSLKSRVTISLDMSINQFSLKMTSVTAADTAVYYCARVRAYSGIGLDGTDVWGQGTTVTVSS VL: DIVMTQSPLSLPVTPGEPASISCKSSQSLLYSNAYNYLDWYLQRPGQSPQLLIYLGSNRASGVPDRFSGSGSGTDFTLKISRVEAEDVGVYYCMQALQTPLTFGGGTKVEIKR | no binding (tested: 1000 nM) | 43.7 | 0.014 | 321000 | 1.22 | 0.000631 | 518000 | 0.94 | 0.000548 | 583000 | 40.8 | 0.0132 | 324000 |
| Antibody E7 (antibody, human IgG1, kappa, L234A L235A, V domains shown) VH: QVQLQESGPGLVRPSETLSLTCTVSGGSIRNYYWSWIRQPPGKGLEWIGFIYYNGRTFYNPSLKSRVTISLDTSKNQFSLKMTSVTAADTAVYYCARVRAYSGIGLDGTDVWGQGTTVTVSS VL: DIVMTQSPLSLPVTPGEPASISCKSSQSLLYSNGYAYLDWYLQRPGQSPQLLIYQGSNRASGVPDRFSGSGSGTDFTLKISRVEAEDVGVFYCMQALQTPLTFGGGTKVEIKR | no binding (tested: 1000 nM) | 21.9 | 0.00346 | 158000 | 1.2 | 0.000453 | 378000 | 1.18 | 0.000552 | 468000 | 21.2 | 0.00337 | 159000 |

More lines, now with the values ahead:

| binding result [1] | Kd [2] [nM] | koff [2] [s⁻¹] | kon [2] [M⁻¹ s⁻¹] | Kd [3] [nM] | koff [3] [s⁻¹] | kon [3] [M⁻¹ s⁻¹] | Kd [4] [nM] | koff [4] [s⁻¹] | kon [4] [M⁻¹ s⁻¹] | Kd [5] [nM] | koff [5] [s⁻¹] | kon [5] [M⁻¹ s⁻¹] | Binder |
| --- | --- | --- | --- | --- | --- | --- | --- | --- | --- | --- | --- | --- | --- |
| no binding (tested: 1000 nM) | 41 | 0.00774 | 189000 | 1.03 | 0.000386 | 374000 | 0.88 | 0.000375 | 429000 | 41.6 | 0.00729 | 175000 | Antibody E6 (antibody, human IgG1, kappa, L234A L235A, V domains shown) VH: QVQLQESGPGLVRPSETLSLTCTVSGGSIRNYYWSWIRQPPGKGLEWIGFIYYNGRTFYNPSLKSRVTISLDKSKNQFSLKMTSVTAADTAVYYCARVRAYSGIGLDGTDVWGQGTTVTVSS VL: DIVMTQSPLSLPVTPGEPASISCKSSQSLLYSNGYAYLDWYLQRPGQSPQLLIYLGSNRASGVPDRFSGSGSGTDFTLKISRVEAEDVGVYYCMQALQTPLTFGGGTKVEIKR |
| no binding (tested: 1000 nM) | 25.2 | 0.00545 | 216000 | 1.23 | 0.000518 | 422000 | 1.2 | 0.000596 | 498000 | 23.7 | 0.00526 | 222000 | Antibody E10 (antibody, human IgG1, kappa, L234A L235A, V domains shown) VH: QVQLQESGPGLVRPSETLSLTCTVSGGSIRNYYWSWIRQPPGKGLEWIGFIYYNGRTFYNPSLKSRVTISLDTSKNQFSLKMTSVTAADTAVYYCARVRAYSGIGLDGTDVWGQGTTVTVSS VL: DIVMTQSPLSLPVTPGEPASISCKSSQSLLYSNGYAYLDWYLQRPGQSPQLLIYLGSNRASGVPDRFSGSGSGTDFTLKISRVEAEDVGVYYCMQALQTPLTFGGGTKVEIKR |
| no binding (tested: 1000 nM) | 21.1 | 0.00468 | 222000 | 0.99 | 0.000433 | 438000 | 0.82 | 0.000421 | 511000 | 19.8 | 0.00451 | 228000 | Antibody E4 (antibody, human IgG1, kappa, L234A L235A, V domains shown) VH: QVQLQESGPGLVRPSETLSLTCTVSGGSIRNYYWSWIRQPPGKGLEWIGFIYYNGRTFYNPSLKSRVTISLDMSKNQFSLKMTSVTAADTAVYYCARVRAYSGIGLDGTDVWGQGTTVTVSS VL: DIVMTQSPLSLPVTPGEPASISCKSSQSLLYSNGYAYLDWYLQRPGQSPQLLIYLGSNRASGVPDRFSGSGSGTDFTLKISRVEAEDVGVYYCMQALQTPLTFGGGTKVEIKR |
| no binding (tested: 1000 nM) | 38.2 | 0.00471 | 123000 | 1.02 | 0.000336 | 331000 | 0.87 | 0.000355 | 406000 | 37.8 | 0.00459 | 121000 | Antibody E5 (antibody, human IgG1, kappa, L234A L235A, V domains shown) VH: QVQLQESGPGLVRPSETLSLTCTVSGGSIRNYYWSWIRQPPGKGLEWIGFIYYNGRTFYNPSLKSRVTISLDKSKNQFSLKMTSVTAADTAVYYCARVRAYSGIGLDGTDVWGQGTTVTVSS VL: DIVMTQSPLSLPVTPGEPASISCKSSQSLLYSNGYAYLDWYLQRPGQSPQLLIYQGSNRASGVPDRFSGSGSGTDFTLKISRVEAEDVGVFYCMQALQTPLTFGGGTKVEIKR |
| no binding (tested: 1000 nM) | 17.7 | 0.0036 | 204000 | 1.21 | 0.00039 | 322000 | 0.54 | 0.000236 | 435000 | 16.6 | 0.00344 | 207000 | Antibody E8 (antibody, human IgG1, kappa, L234A L235A, V domains shown) VH: QVQLQESGPGLVRPSETLSLTCTVSGGSIRNYYWSWIRQPPGKGLEWMGFIYDNGRTFYNPSLKSRVTISLDMSMNQFSLKMTSVTAADTAVYYCARVRAYSGIGLDGTDVWGQGTTVTVSS VL: DIVMTQSPLSLPVTPGEPASISCKSSQSLLYSNGYAYLDWYLQRPGQSPQLLIYQGSNRASGVPDRFSGSGSGTDFTLKISRVEAEDVGVFYCMQALQTPLTFGGGTKVEIKR |
